How the values were obtained:
[1] = molecular target: Cell-surface full length amyloid precursor protein (APP) on HEK293T cells transfected with wild type APP DNA (UniProt P05067); assay: FMAT ABI8200, HEK293T cells transfected with wild type APP, mock subtracted; Experiment 1
[2] = molecular target: Cell-surface full length amyloid precursor protein (APP) on HEK293T cells transfected with wild type APP DNA (UniProt P05067); assay: FMAT ABI8200, HEK293T cells transfected with wild type APP, mock subtracted; Experiment 2

Sequence of Cell-surface full length amyloid precursor protein (APP) on HEK293T cells transfected with wild type APP DNA (P05067 18-770): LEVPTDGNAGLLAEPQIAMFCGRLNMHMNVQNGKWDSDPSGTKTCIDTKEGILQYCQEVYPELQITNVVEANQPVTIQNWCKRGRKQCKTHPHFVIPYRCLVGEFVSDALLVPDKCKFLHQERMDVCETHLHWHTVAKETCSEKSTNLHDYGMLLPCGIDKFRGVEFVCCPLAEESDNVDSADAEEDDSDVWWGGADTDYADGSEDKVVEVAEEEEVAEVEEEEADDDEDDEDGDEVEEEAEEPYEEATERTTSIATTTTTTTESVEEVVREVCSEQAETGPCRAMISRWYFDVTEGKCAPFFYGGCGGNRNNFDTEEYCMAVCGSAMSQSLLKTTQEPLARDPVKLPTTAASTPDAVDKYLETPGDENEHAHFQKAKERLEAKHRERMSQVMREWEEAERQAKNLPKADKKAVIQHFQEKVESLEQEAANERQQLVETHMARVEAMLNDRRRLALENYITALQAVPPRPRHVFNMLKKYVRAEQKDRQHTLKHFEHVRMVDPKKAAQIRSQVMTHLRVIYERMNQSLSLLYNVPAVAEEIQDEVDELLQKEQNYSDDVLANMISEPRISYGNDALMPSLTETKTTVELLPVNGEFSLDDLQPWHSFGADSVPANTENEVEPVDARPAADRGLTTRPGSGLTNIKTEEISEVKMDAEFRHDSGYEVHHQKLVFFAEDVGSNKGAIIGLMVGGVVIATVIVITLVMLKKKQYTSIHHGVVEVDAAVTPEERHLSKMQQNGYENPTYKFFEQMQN

% of LN27 binding [1]: 9.9%
% of LN27 binding [2]: 2.2%
B1: Mouse monoclonal antibody 2E7 (antibody, mouse IgG2a, V domains shown)
VH: EVKLVESGGGLVQPGGSLKLSCAVSGFTFSDNGMAWVRQAPRKGPEWIAFISNLAYSIDYADTVTGRFTISRDNAKNTLYLEMSSLRSEDTAMYYCVSGTWFAYWGQGTLVTVSA
VL: DVVLTQTPLSLPVSLGDQASISCRVSQSLLHSNGYTYLHWYLQKPGQSPKLLIYKVSNRFSGVPDRFSGSGSGTDFTLKISRVEAEDLGVYFCSQTRHVPYTFGGGTKLEIK

— patent US20110064740A1
